In assay [1] the target is T1, ClpA-ClpS complex (ClpAS; printed as ClpAPS in the text) (E. coli, UniProt P0ABH9 1-758; P0A8Q6 2-106).
T1 sequence 1: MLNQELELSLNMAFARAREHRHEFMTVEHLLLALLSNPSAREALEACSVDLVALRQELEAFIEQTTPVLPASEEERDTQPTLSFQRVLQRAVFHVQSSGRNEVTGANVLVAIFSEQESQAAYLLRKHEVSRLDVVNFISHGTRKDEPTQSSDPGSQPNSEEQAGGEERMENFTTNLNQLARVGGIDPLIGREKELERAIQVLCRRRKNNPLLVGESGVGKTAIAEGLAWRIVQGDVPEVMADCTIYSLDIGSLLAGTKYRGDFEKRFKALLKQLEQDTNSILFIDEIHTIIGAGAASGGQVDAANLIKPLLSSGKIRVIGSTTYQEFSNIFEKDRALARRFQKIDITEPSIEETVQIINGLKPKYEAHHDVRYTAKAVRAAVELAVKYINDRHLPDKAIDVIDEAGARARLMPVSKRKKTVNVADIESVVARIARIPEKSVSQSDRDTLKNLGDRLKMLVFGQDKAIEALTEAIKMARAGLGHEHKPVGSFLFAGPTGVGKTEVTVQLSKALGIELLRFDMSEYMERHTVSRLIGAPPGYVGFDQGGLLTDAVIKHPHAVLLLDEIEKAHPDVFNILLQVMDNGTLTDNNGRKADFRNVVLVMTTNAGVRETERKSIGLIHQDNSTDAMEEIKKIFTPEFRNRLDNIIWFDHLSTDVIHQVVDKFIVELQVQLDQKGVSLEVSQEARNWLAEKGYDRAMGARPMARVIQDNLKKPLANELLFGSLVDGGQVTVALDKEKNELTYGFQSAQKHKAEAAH
T1 sequence 2: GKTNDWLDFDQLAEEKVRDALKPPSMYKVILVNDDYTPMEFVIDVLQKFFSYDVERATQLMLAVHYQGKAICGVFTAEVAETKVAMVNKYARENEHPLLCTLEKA
The assay is described as follows: fluorescence polarisation.

The target in assay [2] is T2, ClpA (E. coli, UniProt P0ABH9 1-758).
T2 sequence (looked up): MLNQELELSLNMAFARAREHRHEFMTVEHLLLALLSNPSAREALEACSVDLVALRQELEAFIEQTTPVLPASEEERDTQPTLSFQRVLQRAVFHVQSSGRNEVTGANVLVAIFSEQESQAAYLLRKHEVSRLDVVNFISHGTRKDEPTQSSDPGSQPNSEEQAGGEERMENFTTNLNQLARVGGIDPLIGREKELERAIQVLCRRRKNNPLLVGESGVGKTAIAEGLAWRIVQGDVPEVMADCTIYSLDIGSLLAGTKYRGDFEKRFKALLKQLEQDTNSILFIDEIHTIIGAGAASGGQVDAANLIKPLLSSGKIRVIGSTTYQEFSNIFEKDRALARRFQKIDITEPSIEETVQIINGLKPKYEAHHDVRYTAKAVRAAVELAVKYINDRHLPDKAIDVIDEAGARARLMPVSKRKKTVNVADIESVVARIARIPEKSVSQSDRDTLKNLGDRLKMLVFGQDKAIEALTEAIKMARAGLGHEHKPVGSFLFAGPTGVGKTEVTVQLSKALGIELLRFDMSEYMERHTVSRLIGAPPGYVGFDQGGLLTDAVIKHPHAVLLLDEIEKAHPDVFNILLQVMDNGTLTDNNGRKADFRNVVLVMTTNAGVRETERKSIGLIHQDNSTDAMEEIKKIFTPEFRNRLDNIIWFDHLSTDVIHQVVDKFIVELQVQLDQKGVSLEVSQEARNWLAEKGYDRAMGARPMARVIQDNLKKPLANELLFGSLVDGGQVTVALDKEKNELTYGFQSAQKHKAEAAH
The assay is described as follows: fluorescence polarisation.

The target in assay [3] is T2, ClpA. The assay is described as follows: fluorescence polarisation. The source holds these as a separate data set.
Assay [4] deals with ClpS*^fl (fluorescein-labelled variant of ClpS containing one cysteine) (E. coli) (UniProt P0A8Q6). The assay is described as follows: fluorescence polarisation.
In assay [5] the target is T2, ClpA.

Read-outs that look alike come from different tables or passages of the source.

B1: λ*^fl-ssrA (fluorescein-labelled ssrA-tagged DNA-binding domain of λ repressor, λ(1-93)^A21C-ssrA) (domain or fragment, bacteriophage λ | E. coli)
chain: MSTKKKPLTQEQLEDARRLKCIYEKKKNELGLSQESVADKMGMGQSGVGALFNGINALNAYNAALLAKILKVSVEEFSPSIAREIYEMYEAVSAANDENYALAA
modifications: fluorescein (fluorescein-5-maleimide) on the single cysteine
B1: the Kd is around 8000 nM in assay [1] and 740 nM in assay [2].

B2: ClpS (natural protein, E. coli)
chain: GKTNDWLDFDQLAEEKVRDALKPPSMYKVILVNDDYTPMEFVIDVLQKFFSYDVERATQLMLAVHYQGKAICGVFTAEVAETKVAMVNKYARENEHPLLCTLEKA
Consider B2, for which the binding result in assay [3] is recorded as “binds”.

B3: ClpA (enzyme)
chain: MLNQELELSLNMAFARAREHRHEFMTVEHLLLALLSNPSAREALEACSVDLVALRQELEAFIEQTTPVLPASEEERDTQPTLSFQRVLQRAVFHVQSSGRNEVTGANVLVAIFSEQESQAAYLLRKHEVSRLDVVNFISHGTRKDEPTQSSDPGSQPNSEEQAGGEERMENFTTNLNQLARVGGIDPLIGREKELERAIQVLCRRRKNNPLLVGESGVGKTAIAEGLAWRIVQGDVPEVMADCTIYSLDIGSLLAGTKYRGDFEKRFKALLKQLEQDTNSILFIDEIHTIIGAGAASGGQVDAANLIKPLLSSGKIRVIGSTTYQEFSNIFEKDRALARRFQKIDITEPSIEETVQIINGLKPKYEAHHDVRYTAKAVRAAVELAVKYINDRHLPDKAIDVIDEAGARARLMPVSKRKKTVNVADIESVVARIARIPEKSVSQSDRDTLKNLGDRLKMLVFGQDKAIEALTEAIKMARAGLGHEHKPVGSFLFAGPTGVGKTEVTVQLSKALGIELLRFDMSEYMERHTVSRLIGAPPGYVGFDQGGLLTDAVIKHPHAVLLLDEIEKAHPDVFNILLQVMDNGTLTDNNGRKADFRNVVLVMTTNAGVRETERKSIGLIHQDNSTDAMEEIKKIFTPEFRNRLDNIIWFDHLSTDVIHQVVDKFIVELQVQLDQKGVSLEVSQEARNWLAEKGYDRAMGARPMARVIQDNLKKPLANELLFGSLVDGGQVTVALDKEKNELTYGFQSAQKHKAEAAH
On to B3, for which the equilibrium dissociation constant (Kd) in assay [4] worked out at 160 nM.

B4: ClpS^ΔN17 (domain or fragment, E. coli, UniProt P0A8Q6 18-106, looked up)
chain: VRDALKPPSMYKVILVNDDYTPMEFVIDVLQKFFSYDVERATQLMLAVHYQGKAICGVFTAEVAETKVAMVNKYARENEHPLLCTLEKA
B4 showed an equilibrium dissociation constant (Kd) in assay [5] of around 160 nM.
